Test results as given in the supplement of paper PMC7877785.
± gives the uncertainty stated by the source.

Assay: self-splicing fitness, log relative to wild type (ln ratio); higher = more splicing; Tetrahymena group I intron in knt gene, E. coli kanamycin selection, DiMSum; sequences stand for … in CUCUCU…GGAGGGAAAAGUUAUCAGGCAUGCACCUGGUAGCUAGUCUUUAAACCAAUAGAUUGCAUCGGUUUAAAAGGCAAGACCGUCAAAUUGCGGGAAAGGGGUCAACAGCCGUUCAGUACCAAGUCUCAGGGGAAACUUUGAGAUGGCCUUGCAAAGGGUAUGGUAAUAAGCUGACGGACAUGGUCCUAACCACGCAGCCAAGUCCUAAGUCAACAGAUCUUCUGUUGAUAUGGAUGCAGUUCACAGACUAAAUGUCGGUCGGGGAAGAUGUAUUCUUCUCAUAAGAUAUAGUCGGACCUCUCCUUAAUGGGAGCUAGCGGAUGAAGUGAUGCAACACUGGAGCCGCUGGGAACUAAUUUGUAUGCGAAAGUAUAUUGAUUAGUUUUGGAGUACUCGUGGUCG
Summary of the method: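 Library with all eight P1ex-region intron nucleotides randomised, intron inside the knt kanamycin-resistance gene on pET-22b(+), in E. coli BL21(DE3). Cells grew overnight at 37°C or 30°C on LB agar with or without 25 μg/mL kanamycin (plus 100 μg/mL carbenicillin, 50 μM IPTG, 0.2% rhamnose), in six replicate transformations. Pooled colonies were amplicon-sequenced on Illumina HiSeq 2500. DiMSum fitness is the error-weighted combination of wild-type-normalised replicate fold changes, kanamycin versus none.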

| Sequence | self-splicing fitness (ln) (30 °C) | self-splicing fitness (ln) (37 °C) |
| --- | --- | --- |
| GACGAGCAAUAUUACGAACA | -0.347 ± 0.3 | -1.44 ± 0.3 |
| CUUAAGCAAUAUUACGCCCU | -3.17 ± 0.32 | -1.96 ± 0.43 |
| GCCGAGCAAUAUUACGUCAA |  | -2.36 ± 0.33 |
| CAGAAGCAAUAUUACGUUCA | -2.03 ± 0.14 | -0.728 ± 0.1 |
| AUUCAGCAAUAUUACGAGGG | -2.42 ± 0.26 | -1.42 ± 0.34 |
| UUCCAGCAAUAUUACGGCCC | -2.34 ± 0.38 |  |
| GCUAAGCAAUAUUACGGUUG | -2.99 ± 0.092 | -2.42 ± 0.098 |
| CAUAAGCAAUAUUACGCGGU | -3.72 ± 0.24 | -2.34 ± 0.17 |
| CACGAGCAAUAUUACGGACA | -3.03 ± 0.22 | -2.9 ± 0.22 |
| GAGAAGCAAUAUUACGGUGC | -2.81 ± 0.19 | 0.59 ± 0.21 |
| GGCGAGCAAUAUUACGAUGG | -2.32 ± 0.24 |  |
| GUCGAGCAAUAUUACGUUAA |  | -2.06 ± 0.47 |
| UCUUAGCAAUAUUACGGGGA | -1.1 ± 0.15 | -1 ± 0.16 |
| AACGAGCAAUAUUACGCCUA | -3.36 ± 0.41 | -1.08 ± 0.3 |
| GUAUAGCAAUAUUACGGGGG | -3.63 ± 0.37 | -2.53 ± 0.48 |
| AGUGAGCAAUAUUACGAACA | -1.77 ± 0.18 | -0.734 ± 0.15 |
| UUAGAGCAAUAUUACGCUCG | -1.98 ± 0.23 |  |
| CUCUAGCAAUAUUACGCAUU | -4.34 ± 0.39 | -4 ± 0.39 |
| AGCCAGCAAUAUUACGCAUU | -1.65 ± 0.062 | -1.25 ± 0.075 |
| CCGGAGCAAUAUUACGAUGG | -3.6 ± 0.48 | -3 ± 0.43 |
| GGAAAGCAAUAUUACGCACC | -1.43 ± 0.21 |  |

| Sequence | self-splicing fitness (ln) (30 °C) | self-splicing fitness (ln) (37 °C) |
| --- | --- | --- |
| UGACAGCAAUAUUACGAGUU | -3.89 ± 0.2 | -2.86 ± 0.19 |
| AGACAGCAAUAUUACGCGCU | -2.26 ± 0.12 | -1.63 ± 0.13 |
| CGUCAGCAAUAUUACGUCGA | -2.18 ± 0.1 | -1.77 ± 0.14 |
| GGAUAGCAAUAUUACGUGUG | -1.91 ± 0.12 | -1.19 ± 0.14 |
| UUAAAGCAAUAUUACGUACG | 0.121 ± 0.083 | 0.746 ± 0.1 |
| CUGUAGCAAUAUUACGACAG | -4.61 ± 0.3 | -1.97 ± 0.21 |
| GAUAAGCAAUAUUACGUACC | -0.984 ± 0.2 | -0.641 ± 0.21 |
| UCUUAGCAAUAUUACGGUGG | -1.18 ± 0.13 | -1.2 ± 0.16 |
| AAUAAGCAAUAUUACGGAAG | -3.52 ± 0.28 | -1.86 ± 0.39 |
| CCAUAGCAAUAUUACGAUUA | -3.12 ± 0.32 | -2.54 ± 0.28 |
| CGAUAGCAAUAUUACGCUCA | -0.478 ± 0.11 | 0.119 ± 0.15 |
| GAGAAGCAAUAUUACGGUUU | -1.07 ± 0.099 | -1.21 ± 0.14 |
| ACUCAGCAAUAUUACGGCUU | -0.0445 ± 0.067 | 0.494 ± 0.086 |
| AAACAGCAAUAUUACGAGGC | -3.32 ± 0.17 | -3.12 ± 0.28 |
| GGCCAGCAAUAUUACGAAUA | -3.4 ± 0.36 | -2.71 ± 0.23 |
| AGAUAGCAAUAUUACGACUC | -0.641 ± 0.12 | -0.0202 ± 0.21 |
| GAAUAGCAAUAUUACGCCGU | -1.6 ± 0.1 | -0.466 ± 0.11 |
| GUGUAGCAAUAUUACGCAUA | -2.5 ± 0.21 | -1.31 ± 0.19 |
| CAAUAGCAAUAUUACGUUUU | -5.04 ± 0.25 | -2.5 ± 0.13 |
| GCCGAGCAAUAUUACGCUUA | -1.21 ± 0.072 | -0.233 ± 0.089 |
| AUUUAGCAAUAUUACGUUCU | -0.544 ± 0.085 | -0.0441 ± 0.12 |

| Sequence | self-splicing fitness (ln) (30 °C) | self-splicing fitness (ln) (37 °C) |
| --- | --- | --- |
| UGCCAGCAAUAUUACGUUUG | -2.35 ± 0.092 | -0.857 ± 0.12 |
| UAGGAGCAAUAUUACGACUA | -0.46 ± 0.13 | -1.53 ± 0.15 |
| AUUUAGCAAUAUUACGUGUG | -2.36 ± 0.11 | -1.44 ± 0.11 |
| CGCCAGCAAUAUUACGCUCU | -1.6 ± 0.081 | -1.06 ± 0.097 |
| CCCAAGCAAUAUUACGAGCU | -4.17 ± 0.19 | -2.44 ± 0.21 |
| GGGUAGCAAUAUUACGUGAC | -2.07 ± 0.17 | -2.27 ± 0.26 |
| ACAAAGCAAUAUUACGGGAU | -1.19 ± 0.058 | -0.492 ± 0.076 |
| CAUAAGCAAUAUUACGGGGG | -2.49 ± 0.094 | -2.42 ± 0.14 |
| AUCGAGCAAUAUUACGCUAC |  | -1.06 ± 0.29 |
| GACGAGCAAUAUUACGACAC | -3.03 ± 0.49 | -1.55 ± 0.15 |
| GGUGAGCAAUAUUACGUCCG | -1.13 ± 0.21 | -0.66 ± 0.29 |
| AACGAGCAAUAUUACGAUGG | -3.27 ± 0.16 | -3 ± 0.26 |
| ACGCAGCAAUAUUACGCAGC | -3.49 ± 0.18 | -2.16 ± 0.25 |
| UCCUAGCAAUAUUACGGAGG | -2.63 ± 0.17 | -1.73 ± 0.2 |
| GUGUAGCAAUAUUACGAGCC | -2.65 ± 0.38 | -2.28 ± 0.31 |
| UCACAGCAAUAUUACGACUU | -3.28 ± 0.2 | -1.65 ± 0.12 |
| ACCGAGCAAUAUUACGUAUU | -3.21 ± 0.16 | -1.98 ± 0.17 |
| AGCGAGCAAUAUUACGUCAG | -4.3 ± 0.36 | -2.58 ± 0.29 |
| CGUUAGCAAUAUUACGCGGG | -3.91 ± 0.24 | -3.13 ± 0.29 |
| CAAUAGCAAUAUUACGGUUG | -2.6 ± 0.12 | -1.67 ± 0.12 |
